Experiment [1] concerns the target KNH1144 SOSIP gp140 trimer with the hexaarginine (R6) mutation (HIV-1 subtype A isolate KNH1144). Put plainly: native gel or EMSA. A general note: Mobility shift assays separate free from complexed probe on a gel.
Experiment [2] shares this target. Put plainly: negative-stain electron microscopy.

In general, stoichiometry N refers to a count of units in the complex or per binding partner. With “KNH1144 SOSIP gp140 trimer with the hexaarginine (R6) mutation (complex)”, the stoichiometry N in experiment [1] turned out to be 3.

For the substance “four-domain soluble CD4 (domain or fragment)”, the stoichiometry N (molecules per trimer) in experiment [1] and in experiment [2] was 3 in each case.

On to “two-domain soluble CD4 (domain or fragment)”, for which, in experiment [1], the stoichiometry N (molecules per trimer) came to 3.

(Values after article PMC4340663.)
